Substrate in this data set: CC(=O)N[C@H]1[C@H](O[C@H]2[C@H](O[C@H](C)C(=O)N[C@@H](C)C(=O)N[C@H](CCC(=O)N[C@@H](CCC[C@@H](N)C(=O)O)C(=O)N[C@H](C)C(=O)O)C(=O)O)[C@@H](NC(C)=O)[C@@H]3OC[C@H]2O3)O[C@H](CO)[C@@H](O)[C@@H]1O
Put plainly: purified protein. Format: biochemical, Drosophila melanogaster. As to conditions: 20 mM HEPES pH 7.4, 2.5 mM EDTA, 37 °C, substrate 10–500 μM, releases terminal D-Ala.

B1: rPGRP-SA (recombinant Drosophila PGRP-SA) (Drosophila melanogaster) (protein)
chain: GKSRQRSPANCPTIKLKRQWGGKPSLGLHYQVRPIRYVVIHHTVTGECSGLLKCAEILQNMQAYHQNELDFNDISYNFLIGNDGIVYEGTGWGLRGAHTYGYNAIGTGIAFIGNFVDKLPSDAALQAAKDLLACGVQQGELSEDYALIAGSQVISTQSPGLTLYNEIQEWPHWLSNP
notes: full-length secreted protein, own signal peptide removed, 177 residues plus C-terminal 6xHis tag; baculovirus, Hi-5 insect cells; monomer by gel filtration
As to B1, the Km amounted to 21.4 ± 1.8 µM and the kcat came to 0.000133 ± 5.6e-06 s⁻¹.

The values are drawn from publication PMC515366, “A Drosophila Pattern Recognition Receptor Contains a Peptidoglycan Docking Groove and Unusual L,D-Carboxypeptidase Activity” (PLoS Biology, 2004).
